The target of assay [1] is T1, CEACAM1 transiently expressed on CHO cells (UniProt P13688 35-526, limits assumed).
T1 construct: whole, on cells
T1 sequence (looked up): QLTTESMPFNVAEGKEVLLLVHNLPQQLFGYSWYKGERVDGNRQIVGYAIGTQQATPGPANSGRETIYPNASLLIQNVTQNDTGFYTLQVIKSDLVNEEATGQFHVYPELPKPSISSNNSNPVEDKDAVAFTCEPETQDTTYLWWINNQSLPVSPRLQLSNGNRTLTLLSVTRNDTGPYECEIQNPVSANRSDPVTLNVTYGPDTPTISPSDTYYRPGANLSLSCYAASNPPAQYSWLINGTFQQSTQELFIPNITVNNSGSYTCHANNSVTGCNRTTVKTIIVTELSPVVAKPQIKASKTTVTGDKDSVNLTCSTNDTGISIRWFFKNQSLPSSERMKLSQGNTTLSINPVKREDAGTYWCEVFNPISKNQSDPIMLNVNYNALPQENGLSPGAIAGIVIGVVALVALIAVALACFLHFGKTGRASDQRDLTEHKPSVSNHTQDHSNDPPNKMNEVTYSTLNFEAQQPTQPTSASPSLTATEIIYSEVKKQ
The experiment in a line: flow cytometry contour plots (SSC against fluorescence) on CHO cells transiently expressing CEACAM1. For orientation: Flow cytometry measures light scatter and fluorescence of single cells or particles in a stream.

Assay [2] deals with T2, CEACAM6 transiently expressed on CHO cells (UniProt P40199 35-320, limits assumed).
T2 construct: whole, on cells
T2 sequence (looked up): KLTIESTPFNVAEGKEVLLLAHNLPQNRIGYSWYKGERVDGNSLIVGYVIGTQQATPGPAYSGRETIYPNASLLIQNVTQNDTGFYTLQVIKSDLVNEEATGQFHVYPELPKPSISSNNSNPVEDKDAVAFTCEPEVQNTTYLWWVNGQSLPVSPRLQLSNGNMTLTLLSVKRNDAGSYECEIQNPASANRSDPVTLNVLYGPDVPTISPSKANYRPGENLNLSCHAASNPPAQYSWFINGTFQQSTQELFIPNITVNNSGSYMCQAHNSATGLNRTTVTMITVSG
In words: flow cytometry contour plots (SSC against fluorescence) on CHO cells transiently expressing CEACAM6.

B1: PEA2 antibody as used in Example 8 (flow cytometry on transfected CHO cells) (antibody, V domains shown)
VH: EVQLLESGGGLVQPGGSLRLSCAASGFTFSRTAMSWVRQAPGKGLEWVSAIDYDGGVTYYADSVKGRFTISRDNSKNTLYLQMNSLRAEDTAVYYCAKLTYARFDYWGQGTLVTVSS
VL: EIVLTQSPGTLSLSPGERATLSCRASQSVSQNHLAWYQQKPGQAPRLLIYLASRRHTGIPDRFSGSGSGTDFTLTISRLEPEDFAVYYCQQSGRVPWTFGQGTKVEIK
notes: also called antibody PEA2
With B1, the binding result in assay [1] and in assay [2] was “no binding (tested: 50 nM)” in each case.

The values above are taken from patent publication US20260226189A1 (PHILOGEN S P A, published 2026).
